Data reported in patent US8802414B2, “Methods and materials for reducing biofilms” (priority 2007, dated 2014).

Legend:
Test in all cases: Microtiter plate biofilm detachment assay
[1] = test system: pre-formed biofilms of S. carnosus TM300+pCN27; assay type: cell-based, Staphylococcus carnosus; conditions: 2 hours at 37° C.; safranin OD492
[2] = test system: pre-formed biofilms of S. epidermidis RP62A; assay type: cell-based, Staphylococcus epidermidis; conditions: 2 hours at 37° C.; safranin OD492
[3] = test system: pre-formed S. lugdunensis biofilms; assay type: cell-based, Staphylococcus lugdunensis; conditions: 2 hours at 37° C.; safranin OD492; 15 clinical isolates
Protocol: 40 mM sodium metaperiodate (NaIO4, Sigma-Aldrich) in water, 40 μg/mL purified recombinant dispersin B (obtained from Kane Biotech Inc., Winnipeg, Manitoba, Canada) in sodium phosphate buffer (50 mM sodium phosphate (pH 5.8), 100 mM NaCl), 100 μg/mL proteinase K (Roche Applied Science) in 10 mM Tris-HCl pH 7.5, 10 U/mL trypsin (Promega Corp., Madison, Wis.) in 10 mM Tris-HCl pH 7.5, 100 μg/mL chymotrypsin (Sigma-Aldrich) in 10 mM Tris-HCl pH 7.5, and 100 μg/mL thermolysin (Sigma-Aldrich) in 10 mM Tris-HCl pH 7.5 were tested for their ability to detach pre-formed S. lugdunensis biofilms from polystyrene microtiter plate wells. For certain experiments, proteinase K was inactivated by boiling for 40 minutes.
Biofilms grown in TSBgluc1% were formed in wells of microtiter plates and washed twice with deionized water, as described above for the microtiter plate biofilm formation assay. 100 μL of NaIO4, enzyme, or suitable control was carefully added so as not to mechanically detach biofilms on the bottoms of wells. Plates were incubated at 37° C. for 2 hours, and contents of wells were discarded and washed twice with deionized water. Plates were air-dried overnight, stained with 0.1% safranin for 1 minute, and processed as described above to quantify the amount of stained biofilm remaining after treatment, relative to treatment with the control reagent. Four wells were measured for each treatment condition. Assays were repeated two or three times on separate days with similar results.

Row | Molecule | biofilm detachment compared to buffer [1] | biofilm detachment compared to buffer [2] | biofilm detachment compared to buffer [3]
1 | Proteinase K: protease (Roche Applied Science), 100 μg/mL in 10 mM Tris-HCl pH 7.5 (protein, UniProt P06873 106-384, looked up) Proteinase K: AAQTNAPWGLARISSTSPGTSTYYYDESAGQGSCVYVIDTGIEASHPEFEGRAQMVKTYYYSSRDGNGHGTHCAGTVGSRTYGVAKKTQLFGVKVLDDNGSGQYSTIIAGMDFVASDKNNRNCPKGVVASLSLGGGYSSSVNSAAARLQSSGVMVAVAAGNNNADARNYSPASEPSVCTVGASDRYDRRSSFSNYGSVLDIFGPGTSILSTWIGGSTRSISGTSMATPHVAGLAAYLMTLGKTTAASACRYIADTANKGDLSNIPFGTVNLLAYNNYQA | no effect | no effect | completely removed
2 | heat-inactivated proteinase K: proteinase K inactivated by boiling for 40 minutes (protein, UniProt P06873 106-384, looked up, heat-inactivated) Proteinase K: AAQTNAPWGLARISSTSPGTSTYYYDESAGQGSCVYVIDTGIEASHPEFEGRAQMVKTYYYSSRDGNGHGTHCAGTVGSRTYGVAKKTQLFGVKVLDDNGSGQYSTIIAGMDFVASDKNNRNCPKGVVASLSLGGGYSSSVNSAAARLQSSGVMVAVAAGNNNADARNYSPASEPSVCTVGASDRYDRRSSFSNYGSVLDIFGPGTSILSTWIGGSTRSISGTSMATPHVAGLAAYLMTLGKTTAASACRYIADTANKGDLSNIPFGTVNLLAYNNYQA |  |  | detachment effect was found to be abolished
3 | thermolysin: protease (Sigma-Aldrich), 100 μg/mL in 10 mM Tris-HCl pH 7.5 (protein, UniProt P00800 233-548, looked up) Thermolysin: ITGTSTVGVGRGVLGDQKNINTTYSTYYYLQDNTRGNGIFTYDAKYRTTLPGSLWADADNQFFASYDAPAVDAHYYAGVTYDYYKNVHNRLSYDGNNAAIRSSVHYSQGYNNAFWNGSQMVYGDGDGQTFIPLSGGIDVVAHELTHAVTDYTAGLIYQNESGAINEAISDIFGTLVEFYANKNPDWEIGEDVYTPGISGDSLRSMSDPAKYGDPDHYSKRYTGTQDNGGVHINSGIINKAAYLISQGGTHYGVSVVGIGRDKLGKIFYRALTQYLTPTSNFSQLRAAAVQSATDLYGSTSQEVASVKQAFDAVGVK |  |  | detach S. lugdunensis biofilms selectively
